The text below walks through data of patent US20160009800A1.

Experiment [1] addresses human insulin receptor complexed with human insulin (human) (UniProt P06213). Description: FACS, serum-starved CHO-K1 cells expressing human INSR, with insulin. Background: In flow cytometry, cells or beads pass a laser one at a time.
The target is the same in experiment [2]. Briefly: FACS, CHO-K1 human INSR cells, signal with insulin divided by signal without insulin.
Experiment [3] has the same target. Description: FACS, serum-starved CHO-K1 cells expressing human INSR, with insulin [cont'd].
Experiment [4] shares this target. Description: FACS, CHO-K1 human INSR cells, signal with insulin divided by signal without insulin [cont'd].
The target is the same in experiment [5]. Briefly: FACS competition on hINSR8-CHOK1 cells with insulin; competitor Ab019.
For experiment [6], the target named is human insulin receptor (human) (UniProt P06213). Description: FACS, serum-starved CHO-K1 cells expressing human INSR, no insulin.
In experiment [7] the target is mouse insulin receptor (mouse) (UniProt P15208). Description: FACS, serum-starved CHO-K1 cells expressing mouse INSR, no insulin.
Experiment [8] concerns the target mouse insulin receptor complexed with human insulin (mouse; human) (UniProt P15208). Description: FACS, serum-starved CHO-K1 cells expressing mouse INSR, with insulin.
Experiment [9] shares this target. Description: FACS, CHO-K1 mouse INSR cells, signal with insulin divided by signal without insulin.
Experiment [10] has as its target mouse insulin receptor (mouse) (UniProt P15208). Briefly: FACS, serum-starved CHO-K1 cells expressing mouse INSR, no insulin [cont'd].

Some results are limits rather than exact numbers.

B1: Ab065 (antibody, IgG2, V domains shown)
VH: QVQLVQSGAEVKKPGESLKISCKGSGYSFTSYWIGWVRQMPGKGLEWMGIIYPGDSDTRYSPSFQGQVTISADKSISTAYLQWSSLKASDTAMYYCARHELGIDYWGQGTLVTVSS
VL: QAGLTQPPSVSKGLRQTATLTCTGDNNIVGDQGAAWLQQHQGHPPKLLSFRNNSRPSGISERFSASRSRNTASLTITRLQPEDAADYYCSAWDSFLSAWVFGGGTKLTVL
B1 came in with an FACS area under log transformed data MFI in [1] of 57. Also, the FACS area under log transformed data MFI ratio (+insulin/-insulin) in [2] was 0.28.

B2: Ab071 (antibody, IgG2, V domains shown)
VH: EVQLVQSGAEVKKPGESLKISCKGSGYSFTSYWIGWVRQMPGKGLEWMGIIYPGDSDTRYSPSFQGQVTISADKSISTAYLQWSSLKASDTAMYYCARWDAGYSPWGQGTLVTVSS
VL: SSELTQDPAVSVALGQTVRITCQGDSLRSYYASWYQQKPGQAPVLVFYGKNNRPSGIPGRFSGSKSGNTASLTITGAQAEDEADYYCNSRDSSGNHWVFGGGTKLTVL
B2 had an FACS area under log transformed data MFI in experiment [3] of 194. The FACS area under log transformed data MFI ratio (+insulin/-insulin) in experiment [4] came to 0.4.

B3: Ab061 (antibody, IgG2, V domains shown)
VH: QMQLVQSGAEVKKTGESLKISCQGYGYRFTDNWIGWVRQMPGRGLEWMGIIYPGDSETRYSPSFQGQVTISADKSISTAYLEWSSLKASDTAMYYCARHAPLAVAGMALGDWGQGTLVTVSS
VL: QTVVTQEPSFSVSPGGTVTLTCGLSSGSVSTGYSPGWYQQTPGQAPRTLVYNTNTRSSGVPDRFSGSILGNKAALTITGAQADDESDYYCALYMGSGTYVFGGGTKLTVL
Regarding B3, in [1], the FACS area under log transformed data MFI came to 59. In [2], the FACS area under log transformed data MFI ratio (+insulin/-insulin) amounted to 0.29. The molecule also yielded a percent competition in experiment [5] of less than 30%.

B4: Ab057 (antibody, IgG2, V domains shown)
VH: QMQLVQSGAEVKKPGESLKISCKGYGYRFSDNWIGWVRQMPGRGLEWMGIIYPGDSETRYSPSFQGQVTISADKSISTAYLQWSSLKASDTAMYYCARHAPLAVAGMALGDWGQGTLVTVSS
VL: QTVVTQEPSFSVSPGGTVTLTCGLTSGSVSTSYYPSWYQQTPGQAPRMLVHSTSTRYSGVPDRFSGSILGNKAALTITGAQADDESDYYCALYMGGGIYVFGGGTQLTVL
B4: the FACS area under log transformed data MFI came to 87 in experiment [1] and 155 in experiment [6]. Further, the FACS area under log transformed data MFI ratio (+insulin/-insulin) in experiment [2] was 0.56.

B5: Ab056 (antibody, IgG2, V domains shown)
VH: QVQLVQSGSEVKKPGASVKVSCKASGYTFTNSYMHWVRQAPGQGLEWMGIINPSAGTSYAQKFQGRVTMTRDTSTSTVYMELSSLKSEDTAVYYCARDVGWLPGDYWGQGTLVTVSS
VL: QSALTQPASVSESPGQSITISCTGTGSDIGTYNLVSWYQHHPGKAPKLMIYEVTKRPSGVSNRFSGSKSGNTASLTISGLQAEDEADYYCSSYTSSSTLYVFGTGTKLTVL
Turning to B5, the FACS area under log transformed data MFI was found to be 21 in experiment [7] and 41 in experiment [8]. The FACS area under log transformed data MFI ratio (+insulin/-insulin) in [9] turned out to be 1.98.

B6: Ab069 (antibody, IgG2, V domains shown)
VH: EVQLVQSGAEVKKPGESLKISCKGSGYSFTSYWIGWVRQMPGKGLEWMGIIYPGDSDTRYSPSFQGQVTISADKSISIAYLQWSSLKASDTAMYYCARLGRGYYGMDVWGQGTTVTVSS
VL: SSELTQDPAVSVALGQTVRITCQGDSLRSYYASWYQQKPGQAPVLVIYGKNNRPSGIPDRFSGSRSGNTASLTITGAQAEDEADYYCNSRDSSGNHVVFGGGTKVTVL
B6 displayed an FACS area under log transformed data MFI in [1] of 146. Besides, in experiment [2], the FACS area under log transformed data MFI ratio (+insulin/-insulin) was determined as 0.41.

B7: Ab070 (antibody, IgG2, V domains shown)
VH: EVQLVQSGAEVKKPGESLKISCKGSGYSFTSYWIGWVRQMPGKGLEWMGIIYPGDSDTRYSPSFQGQVTISADKSISTSYLQWSSLRASDTAMYYCARLGSGWYGNDYWGQGTLVTVSS
VL: SSELTQDPAVSVALGQTVRITCQGDSLRSYYTSWYQQKPGQAPVLVIFGKNNRPSGIPDRFSGSSSGNTASLTITGAQAEDEADYYCNSRDSSGNYAVFGGGTQLTVL
Turning to B7, the FACS area under log transformed data MFI in [3] came to 150. The FACS area under log transformed data MFI ratio (+insulin/-insulin) in experiment [4] stood at 0.53.

B8: Ab052 (antibody, IgG2, V domains shown)
VH: EVQLVQSGAEVKKPGESLKISCKGSGYRFTSYWIGWVRQMPGRGLEWMGIIYPGDSDTRYSPSFQGQVTISVDKSISTAYLQWSSLKASDTAMYYCATHHASGRGLDPWGQGTLVTVSS
VL: QAMLTQPASLSASPGASASLTCTLRSGINVVAYNIYWYRQKSGSPPQSVLRYKSDSDSERDSGVPSRFSGSKDVSANAGILLISGLQSEDEADYYCLIWHNSAWVFGGGTQLTVL
In the case of B8, in [1], the FACS area under log transformed data MFI came out at 134. Further, in experiment [2], the FACS area under log transformed data MFI ratio (+insulin/-insulin) amounted to 0.3.

B9: Ab059 (antibody, IgG2, V domains shown)
VH: EVQLVQSGAEVKKPGSSVKVSCKASGGTFSSYAISWVRQAPGQGLEWMGRIIPIFGIANYAQKFQGRVTITADKSTSTAYMELSSLRSEDTAVYYCAREPDYDFWNDAFDIWGQGTMVTVSS
VL: QAVLTQPASLSASPGASASLTCTLRSDISVGVYRISWYQQKPGSPPQYLLSYNSDSNNHQGSGVPSRFSGSKDASANAGILLISGLQSEDEADYYCMIWHINAWVFGGGTKVTVL
As to B9, the FACS area under log transformed data MFI worked out at 14 in [7] and 13 in experiment [8].

B10: Ab072 (antibody, IgG2, V domains shown)
VH: QMQLVQSGAEVKKPGESLKISCKGSGYSFTGYWIGWVRQMPGKGLEWMGIIYPGDSDTRYSPSFQGQVTISADKSISTAYLQWSSLKVSDTAMYYCGRISTPYAFDIWGQGTMVTVSS
VL: SYVLTQPPSASGTPGQRVTISCSGSNSNIGSNFVTWYQQLPGAAPKLLIYTNSQRPSGVPDRFSGSRSGTSASLAISGLQSEDEADYFCAAWDDSLNGPVFGGGTQLTVL
On to B10, for which the FACS area under log transformed data MFI in experiment [3] is 84. In addition, in experiment [4], the FACS area under log transformed data MFI ratio (+insulin/-insulin) was found to be 0.37.

B11: Ab078 (antibody, IgG2, V domains shown)
VH: QVQLVQSGGGLVQPGGSLRLSCAASGFTFSSYSMNWVRQAPGKGLEWVSSISSSSSYIYYADSVKGRFTISRDNAKNSLYLQMNSLRAEDTAVYYCARDQGGELLGFTGYFDYWGQGTLVTVSS
VL: DIQLTQSPSSLSASVGDRVTITCRASQGISSALAWYQQKPGKAPKVLIYDASSLERGVPSRFSGSGTGTDFTLTISSLQPEDFASYYCHQFNSYPDTFGQGTRLEIK
As to B11, the FACS area under log transformed data MFI in experiment [10] turned out to be 12.

B12: Ab082 (antibody, IgG2, V domains shown)
VH: QMQLVQSGAEVKKPGESLKISCKGSGYSFTSYWIGWVRQMPGKGLEWMGIIYPGDSDTRYSPSFQGQVTISADKSISTAYLQWSSLKASDTAMYYCARWGPDAFDIWGQGTMVTVSS
VL: EIVLTQSPDFQSVTPKETVTISCRASQNIGVSLHWYQQKPDQSPKVLIKYASQSLSGVPSRFSGTGSGTDFTLTIKSLEAEDAATYYCLQTSSLPWTFGQGTKVEIK
In turn, B12 showed an FACS area under log transformed data MFI in experiment [3] of 236. Further, the FACS area under log transformed data MFI ratio (+insulin/-insulin) in [4] was determined as 0.59.

B13: Ab050 (antibody, IgG2, V domains shown)
VH: QVQLVQSGAELKKPGATVKISCKVSGYTFGDYHMHWVKQAPGKGLEWMGLVDPENGETEYGEKFQDRITMAADTSTDTAYMELSSLRSEDTAVYYCARSPSSSGYFRVDGFDIWGQGTMVTVSS
VL: NFMLTQPHSVSESPGKTVSISCTGSSGSIGSNYVQWYQQRPGSAPTTVIYEDNQRPSGVPDRFSGSIDSSSNSASLTISGLKTEDEADYYCQSYYNSNVVFGGGTKLTVL
B13 displayed an FACS area under log transformed data MFI in experiment [1] of 81. For the same molecule, the FACS area under log transformed data MFI ratio (+insulin/-insulin) in [2] was found to be 0.32.
